Each block holds one binder with its values, some of them ahead of it.
Columns and labels:
[1] = target: APLNR(K235)-cpGFP expressed in zebrafish embryos (human) (UniProt P35414)
[2] = target: APLNR(K235)-cpGFP expressed in zebrafish embryos (human) (UniProt P35414); remark: listed apart in the source
[3] = target: APLNR(K235)-cpGFP expressed in zebrafish embryos (human) (UniProt P35414); remark: listed apart in the source
[4] = target: APLNR(F233)-cpGFP (human) (UniProt P35414)
[5] = target: APLNR(K235)-cpGFP (human) (UniProt P35414)

cpGFP fluorescence intensity of the biosensor in zebrafish embryos at 6 hpf, after heat shock-induced ubiquitous apln overexpression, against wildtype siblings [1]: 27 % increase | cpGFP fluorescence intensity of the biosensor in intersegmental vessels of zebrafish embryos at 28 hpf, after heat shock-induced apln overexpression, against control siblings [2]: 250 % increase | cpGFP fluorescence intensity of single cells at 1 to 5 cell distances from an apln-expressing cell, zebrafish embryos at 6 hpf; reduction against distance 1 [3]: 23 % reduction
B1: zebrafish Apelin (ligand)
chain: GPMASTEHSKEIEEVGSMRTPLRQNPARAGRSQRPAGWRRRRPRPRLSHKGPMPF

cpGFP fluorescence intensity of the biosensor in zebrafish embryos at 6 hpf, after heat shock-induced ubiquitous apela overexpression, against wildtype siblings [1]: 27 % increase
Binder: DKHGTKHDFLNLRRKYRRHNCPKKRCLPLHSRVPFP (ligand) [zebrafish Apela]

EC50 of the increase of cpGFP fluorescence (conformational change of the biosensor), stable HEK293T cells, 37 °C [4]: 7 nM | EC50 of the increase of cpGFP fluorescence (conformational change of the biosensor), stable HEK293T cells, 37 °C [5]: 8 nM
Binder: QRRCMPLHSRVPFP [Apela(19-32)]

Reference: article PMC12280157
